This experiment addresses biotinylated PDZ-binding motif (PBM) peptide of diacylglycerol kinase zeta (DGKZ). The experiment in a line: native holdup (nHU) with Western blot; titration; biotinylated DGKZ PBM peptide on streptavidin resin as bait, mixed with biotin-saturated control resin at constant resin/analyte ratio; total Jurkat extract (2 mg/ml) as analyte; 4°C, 2 hours; prey depletion in the supernatant read by Western blot; apparent constants; three replicates. In general terms: Immunoblotting shows a protein as a band on a membrane.

As to “endogenous full-length Scribble (SCRIB) (from UniProt Q14160 1-1655) (natural protein)”, the pKapp (negative logarithm of the apparent dissociation constant) is 6.4 pKapp.

The record behind these values is publication PMC9770967, “Native holdup (nHU) to measure binding affinities from cell extracts” (Science Advances, 2022).
